Results: paper PMC6731152 (Molecular cell, 2019)

Experiments:
[1] = biological target: the molecule itself; assay: SEC
[2] = biological target: the molecule itself; assay: cryo-EM structure

B1: ^coreAFG3L2^WB/PI/Δ781−797 (domain or fragment)
chain: not shown
[1]
  binding result: binds

B2: ^coreAFG3L2^WB/PI (human AFG3L2 catalytic core, residues 272-797, E408Q/E575Q) (domain or fragment)
chain: not shown
[2]
  stoichiometry N: 6
